Source: patent publication US20210388087A1 (Chugai, published 2021)
Where a chain is given by its changes, count along the chain named.

B1: H183/L072 VL Q24F (antibody, name in Kabat numbering, V domains shown)
VH: QVQLVESGGGLVQPGRSLRLSCAASGFTFSNAWMHWVRQAPGKGLEWVAQIKDKGNAYAAYYAPSVKGRFTISRDDSKNSIYLQMNSLKTEDTAVYYCHYVHYASASTVLPAFGVDAWGQGTTVTVSS
VL: DIVMTQSPLSLPVTPGEPASISCFASQELVHMNRNTYLHWYQQKPGQAPRLLIYKVSNRFPGVPDRFSGSGSGTDFTLKISRVEAEDVGVYYCAQGTSVPFTFGQGTKLEIK
notes: Dual-Ig
B2: H183/L072 VL Q27V (antibody, name in Kabat numbering, V domains shown)
VH: B1 VH
VL: B1 VL with F24Q, Q27V
notes: Dual-Ig
B3: H183/L072 VL Q24H (antibody, name in Kabat numbering, V domains shown)
VH: B1 VH
VL: B1 VL with F24H
notes: Dual-Ig
B4: H183/L072 VL Q27A (antibody, name in Kabat numbering, V domains shown)
VH: B1 VH
VL: B1 VL with F24Q, Q27A
notes: Dual-Ig
B5: H183/L072 VL Q24K (antibody, name in Kabat numbering, V domains shown)
VH: B1 VH
VL: B1 VL with F24K
notes: Dual-Ig
B6: H183/L072 VL Q24G (antibody, name in Kabat numbering, V domains shown)
VH: B1 VH
VL: B1 VL with F24G
notes: Dual-Ig
B7: H183/L072 VL Q24S (antibody, name in Kabat numbering, V domains shown)
VH: B1 VH
VL: B1 VL with F24S
notes: Dual-Ig
B8: H183/L072 VL Q24V (antibody, name in Kabat numbering, V domains shown)
VH: B1 VH
VL: B1 VL with F24V
notes: Dual-Ig
B9: H183/L072 VL Q27K (antibody, name in Kabat numbering, V domains shown)
VH: B1 VH
VL: B1 VL with F24Q, Q27K
notes: Dual-Ig
B10: H183/L072 VL Q24L (antibody, name in Kabat numbering, V domains shown)
VH: B1 VH
VL: B1 VL with F24L
notes: Dual-Ig
B11: H183/L072 VL Q24W (antibody, name in Kabat numbering, V domains shown)
VH: B1 VH
VL: B1 VL with F24W
notes: Dual-Ig
B12: H183/L072 VL Q27G (antibody, name in Kabat numbering, V domains shown)
VH: B1 VH
VL: B1 VL with F24Q, Q27G
notes: Dual-Ig
B13: H183/L072 VL Q24T (antibody, name in Kabat numbering, V domains shown)
VH: B1 VH
VL: B1 VL with F24T
notes: Dual-Ig
B14: H183/L072 VL Q27L (antibody, name in Kabat numbering, V domains shown)
VH: B1 VH
VL: B1 VL with F24Q, Q27L
notes: Dual-Ig
B15: H183/L072 VL Q24R (antibody, name in Kabat numbering, V domains shown)
VH: B1 VH
VL: B1 VL with F24R
notes: Dual-Ig
B16: H183/L072 VL Q24P (antibody, name in Kabat numbering, V domains shown)
VH: B1 VH
VL: B1 VL with F24P
notes: Dual-Ig
B17: H183/L072 VL Q27R (antibody, name in Kabat numbering, V domains shown)
VH: B1 VH
VL: B1 VL with F24Q, Q27R
notes: Dual-Ig
B18: H183/L072 VL Q27P (antibody, name in Kabat numbering, V domains shown)
VH: B1 VH
VL: B1 VL with F24Q, Q27P
notes: Dual-Ig
B19: H183/L072 VL Q27D (antibody, name in Kabat numbering, V domains shown)
VH: B1 VH
VL: B1 VL with F24Q, Q27D
notes: Dual-Ig
B20: H183/L072 VL Q24N (antibody, name in Kabat numbering, V domains shown)
VH: B1 VH
VL: B1 VL with F24N
notes: Dual-Ig
B21: H183/L072 VL Q27N (antibody, name in Kabat numbering, V domains shown)
VH: B1 VH
VL: B1 VL with F24Q, Q27N
notes: Dual-Ig
B22: H183/L072 VL Q27M (antibody, name in Kabat numbering, V domains shown)
VH: B1 VH
VL: B1 VL with F24Q, Q27M
notes: Dual-Ig
B23: H183/L072 VL Q24I (antibody, name in Kabat numbering, V domains shown)
VH: B1 VH
VL: B1 VL with F24I
notes: Dual-Ig
B24: H183/L072 VL Q27H (antibody, name in Kabat numbering, V domains shown)
VH: B1 VH
VL: B1 VL with F24Q, Q27H
notes: Dual-Ig
B25: H183/L072 VL Q27S (antibody, name in Kabat numbering, V domains shown)
VH: B1 VH
VL: B1 VL with F24Q, Q27S
notes: Dual-Ig
B26: H183/L072 VL Q27E (antibody, name in Kabat numbering, V domains shown)
VH: B1 VH
VL: B1 VL with F24Q, Q27E
notes: Dual-Ig
B27: H183/L072 VL Q27I (antibody, name in Kabat numbering, V domains shown)
VH: B1 VH
VL: B1 VL with F24Q, Q27I
notes: Dual-Ig
B28: H183/L072 VL Q24Y (antibody, name in Kabat numbering, V domains shown)
VH: B1 VH
VL: B1 VL with F24Y
notes: Dual-Ig
B29: H183/L072 VL Q27F (antibody, name in Kabat numbering, V domains shown)
VH: B1 VH
VL: B1 VL with F24Q, Q27F
notes: Dual-Ig
B30: H183/L072 VL Q24M (antibody, name in Kabat numbering, V domains shown)
VH: B1 VH
VL: B1 VL with F24M
notes: Dual-Ig
B31: H183/L072 VL Q27T (antibody, name in Kabat numbering, V domains shown)
VH: B1 VH
VL: B1 VL with F24Q, Q27T
notes: Dual-Ig

The binders below were run against T1, Human CD137 ECD (human) (assay: Biacore SPR, vs parent H183/L072).
T1 construct: entry includes C-terminal His-tag and biotin acceptor peptide; also called human CD137 extracellular domain; 4-1BB
T1 sequence (chain, as listed by the source limits assumed): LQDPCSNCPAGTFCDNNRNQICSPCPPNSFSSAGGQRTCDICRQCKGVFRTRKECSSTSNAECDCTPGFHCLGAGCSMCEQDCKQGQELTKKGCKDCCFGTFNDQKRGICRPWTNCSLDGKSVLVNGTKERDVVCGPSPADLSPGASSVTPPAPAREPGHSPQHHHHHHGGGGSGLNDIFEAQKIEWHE
For B1, the “fold change of affinity” value was 0.9 fold.
In the case of B2, the “fold change of affinity” value is reported as 0.8 fold.
In the case of B3, the “fold change of affinity” value is reported as 1 fold.
B4 was tested, and the “fold change of affinity” value was 1 fold.
With B5 the “fold change of affinity” value was 1 fold.
With B6 the “fold change of affinity” value was 1 fold.
In the case of B7, the “fold change of affinity” value is reported as 1 fold.
B8 was tested, and the “fold change of affinity” value was 0.9 fold.
In the case of B9, the “fold change of affinity” value is reported as 0.9 fold.
With B10 the “fold change of affinity” value was 0.9 fold.
In the case of B11, the “fold change of affinity” value is reported as 1 fold.
In the case of B12, the “fold change of affinity” value is reported as 0.9 fold.
In the case of B13, the “fold change of affinity” value is reported as 1 fold.
B14 was tested, and the “fold change of affinity” value was 0.8 fold.
For B15, the “fold change of affinity” value was 0.9 fold.
With B16 the “fold change of affinity” value was 0 fold.
For B17, the “fold change of affinity” value was 0.9 fold.
In the case of B18, the “fold change of affinity” value is reported as 0.1 fold.
B19 was tested, and the “fold change of affinity” value was 0.9 fold.
With B20 the “fold change of affinity” value was 0.9 fold.
In the case of B21, the “fold change of affinity” value is reported as 0.8 fold.
In the case of B22, the “fold change of affinity” value is reported as 0.9 fold.
With B23 the “fold change of affinity” value was 0.9 fold.
For B24, the “fold change of affinity” value was 0.9 fold.
B25 was tested, and the “fold change of affinity” value was 0.8 fold.
In the case of B26, the “fold change of affinity” value is reported as 1 fold.
In the case of B27, the “fold change of affinity” value is reported as 0.7 fold.
For B28, the “fold change of affinity” value was 0.9 fold.
With B29 the “fold change of affinity” value was 0.6 fold.
B30 was tested, and the “fold change of affinity” value was 1 fold.
B31 was tested, and the “fold change of affinity” value was 0.9 fold.
